We go through one protein from paper PMC8247599 (Genes & Development, 2021).

The data set deals with the molecule itself. The data set is described as follows: crystal structure.

B1: Khc^855–941 (domain or fragment)
chain: not shown
B1: the binding result is “binds”.
